Measured values: publication PMC12828377, “HDAC6-mediated PFKL deacetylation enhances aerobic glycolysis and promotes VSMC proliferation” (The Journal of Biological Chemistry, 2025)

Legend:
Experiment in all cases: cross-linking; VSMC lysate (700 ug protein in NP40 buffer) fixed with 0.1% glutaraldehyde on ice for 10 min, then Western blot; cells with or without PDGF-BB (10 ng/ml, different durations), TSA or NAM, or transduced with Ad-PFKL WT/K563Q/K563R
[1] = molecular target: HA-PFKL K563R (UniProt P17858)
[2] = molecular target: HA-PFKL WT (UniProt P17858)
[3] = molecular target: the molecule itself

HA-PFKL K563R (from UniProt P17858 1-780) (enzyme)
stoichiometry N [1]: 4

HA-PFKL WT (from UniProt P17858 1-780) (enzyme)
stoichiometry N [2]: 4

B1: phosphofructokinase, liver type (PFKL) (enzyme, rat (endogenous in primary rat VSMCs), UniProt P30835 1-780, looked up)
chain: MATVDLEKLRMSGAGKAIGVLTSGGDAQGMNAAVRAVTRMGIYVGAKVFLIYEGYEGLVEGGENIKPANWLSVSNIIQLGGTIIGSARCKAFTTREGRLAAAYNLLQHGITNLCVIGGDGSLTGANIFRNEWGSLLEELVKEGKISESTAQNYAHLSIAGLVGSIDNDFCGTDMTIGTDSALHRIMEVIDAITTTAQSHQRTFVLEVMGRHCGYLALVSALASGADWLFIPEAPPEDGWENFMCERLGETRSRGSRLNIIIIAEGAIDRHGKPISSSYVKDLVVQRLGFDTRVTVLGHVQRGGTPSAFDRVLSSKMGMEAVMALLEATPDTPACVVSLSGNQSVRLPLMECVQVTKDVQKAMDEKRFDEAIQLRGRSFENNWKIYKLLAHQKVSKEKSNFSLAILNVGAPAAGMNAAVRSAVRTGISEGHTVYVVHDGFEGLAKGQVQEVGWHDVAGWLGRGGSMLGTKRTLPKPHLEAIVENLRTYNIHALLVIGGFEAYEGVLQLVEARGRYEELCIVMCVIPATISNNVPGTDFSLGSDTAVNAAMESCDRIKQSASGTKRRVFIVETMGGYCGYLATVTGIAVGADAAYVFEDPFNIHDLKANVEHMTEKMKTDIQRGLVLRNEKCHEHYTTEFLYNLYSSEGRGVFDCRTNVLGHLQQGGAPTPFDRNYGTKLGVKAMLWMSEKLRDVYRKGRVFANAPDSACVIGLRKKVVAFSSVTELKKETDFEHRMPREQWWLNLRLMLKMLAHYRISMADYVSGELEHVTRRTLSIDKGF
notes: phosphofructokinase, liver type (PFKL), endogenous in primary VSMCs from the thoracic aorta of Sprague-Dawley rats; Acetylation level of the endogenous protein changes with PDGF-BB, TSA or NAM; sites on the endogenous protein were not mapped directly; also called endogenous PFKL; PFK1 liver isoform; source: endogenous, primary rat VSMC lysate (NP-40 buffer) or fixed VSMCs
stoichiometry N [3]: 4
